Laboratory results: PMC6344858

Legend:
[1] = target: PfoI restriction endonuclease, wild type (Pseudomonas fluorescens biovar 126); assay: SEC; analytical gel filtration on Superdex75 10/300; 10 mM Tris-HCl pH 7.5, 5 mM calcium chloride, with 150 mM NaCl ('low salt') or 300 mM KCl ('high salt'); 13.8 uM PfoI dimer with or without oligoduplex SP14-GF (1:1.2)
[2] = target: PfoI restriction endonuclease, wild type (Pseudomonas fluorescens biovar 126); assay: dynamic light scattering; PfoI-SP14 complex at various concentrations; Malvern Zetasizer uV; MW estimated from the apparent particle diameter

stoichiometry N [1]: 2 | stoichiometry N [2]: 2
Substance: PfoI restriction endonuclease, wild type (enzyme)
